Results reported in IntAct's records for PubMed 35512704.

B1: Speckle-type POZ protein (Homo sapiens), O43791 (parent)
chain: MSRVPSPPPPAEMSSGPVAESWCYTQIKVVKFSYMWTINNFSFCREEMGEVIKSSTFSSGANDKLKWCLRVNPKGLDEESKDYLSLYLLLVSCPKSEVRAKFKFSILNAKGEETKAMESQRAYRFVQGKDWGFKKFIRRDFLLDEANGLLPDDKLTLFCEVSVVQDSVNISGQNTMNMVKVPECRLADELGGLWENSRFTDCCLCVAGQEFQAHKAILAARSPVFSAMFEHEMEESKKNRVEINDVEPEVFKEMMCFIYTGKAPNLDKMADDLLAAADKYALERLKVMCEDALCSNLSVENAAEILILADLHSADQLKTQAVDFINYHASDVLETSGWKSMVVSHPHLVAEAYRSLASAQCPFLGPPRKRLKQS

Variants of: B1
Settings: with mk06_human MAPK6, Q16659

Variant	effect of a mutation on the interaction
MSRVPSPPPPAEMSSGPVAESWCYTQIKVVKFSYMWTINNFSFCREEMGEVIKSSTFSSGANDKLKWCLRVNPKGLDEESKDYLSLCLLLVSCPKSEVRAKFKFSILNAKGEETKAMESQRAYRFVQGKDWGFKKFIRRDFLLDEANGLLPDDKLTLFCEVSVVQDSVNISGQNTMNMVKVPECRLADELGGLWENSRFTDCCLCVAGQEFQAHKAILAARSPVFSAMFEHEMEESKKNRVEINDVEPEVFKEMMCFIYTGKAPNLDKMADDLLAAADKYALERLKVMCEDALCSNLSVENAAEILILADLHSADQLKTQAVDFINYHASDVLETSGWKSMVVSHPHLVAEAYRSLASAQCPFLGPPRKRLKQS [Y87C]	with no effect

Variants of: B1
Settings: with sin1_human MAPKAP1, Q9BPZ7
Sequence of sin1_human MAPKAP1, Q9BPZ7 (Q9BPZ7 whole entry): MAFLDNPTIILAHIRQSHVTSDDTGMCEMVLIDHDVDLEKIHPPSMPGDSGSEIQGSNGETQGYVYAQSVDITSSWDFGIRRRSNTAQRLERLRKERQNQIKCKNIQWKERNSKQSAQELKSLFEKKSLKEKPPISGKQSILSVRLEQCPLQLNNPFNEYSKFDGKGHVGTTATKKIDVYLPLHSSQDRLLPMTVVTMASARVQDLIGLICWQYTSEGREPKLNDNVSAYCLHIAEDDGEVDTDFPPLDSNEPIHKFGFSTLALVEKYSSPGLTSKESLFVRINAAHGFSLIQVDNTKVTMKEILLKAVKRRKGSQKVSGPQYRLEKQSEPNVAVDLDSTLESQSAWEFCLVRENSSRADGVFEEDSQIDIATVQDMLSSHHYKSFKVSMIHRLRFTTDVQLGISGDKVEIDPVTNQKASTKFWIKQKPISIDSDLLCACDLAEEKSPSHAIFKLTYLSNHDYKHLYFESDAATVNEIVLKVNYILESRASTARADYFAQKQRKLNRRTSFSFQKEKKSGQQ

Variant	effect of a mutation on the interaction
MSRVPSPPPPAEMSSGPVAESWCYTQIKVVKFSYMWTINNFSFCREEMGEVIKSSTFSSGANDKLKWCLRVNPKGLDEESKDYLSLCLLLVSCPKSEVRAKFKFSILNAKGEETKAMESQRAYRFVQGKDWGFKKFIRRDFLLDEANGLLPDDKLTLFCEVSVVQDSVNISGQNTMNMVKVPECRLADELGGLWENSRFTDCCLCVAGQEFQAHKAILAARSPVFSAMFEHEMEESKKNRVEINDVEPEVFKEMMCFIYTGKAPNLDKMADDLLAAADKYALERLKVMCEDALCSNLSVENAAEILILADLHSADQLKTQAVDFINYHASDVLETSGWKSMVVSHPHLVAEAYRSLASAQCPFLGPPRKRLKQS [Y87C]	with no effect

Variants of: B1
Settings: with mcl1_human MCL1, Q07820

Variant	effect of a mutation on the interaction
MSRVPSPPPPAEMSSGPVAESWCYTQIKVVKFSYMWTINNFSFCREEMGEVIKSSTFSSGANDKLKWCLRVNPKGLDEESKDYLSLCLLLVSCPKSEVRAKFKFSILNAKGEETKAMESQRAYRFVQGKDWGFKKFIRRDFLLDEANGLLPDDKLTLFCEVSVVQDSVNISGQNTMNMVKVPECRLADELGGLWENSRFTDCCLCVAGQEFQAHKAILAARSPVFSAMFEHEMEESKKNRVEINDVEPEVFKEMMCFIYTGKAPNLDKMADDLLAAADKYALERLKVMCEDALCSNLSVENAAEILILADLHSADQLKTQAVDFINYHASDVLETSGWKSMVVSHPHLVAEAYRSLASAQCPFLGPPRKRLKQS [Y87C]	with no effect

Variants of: B1
Settings: with mdm2_human MDM2, Q00987

Variant	effect of a mutation on the interaction
MSRVPSPPPPAEMSSGPVAESWCYTQIKVVKFSYMWTINNFSFCREEMGEVIKSSTFSSGANDKLKWCLRVNPKGLDEESKDYLSLCLLLVSCPKSEVRAKFKFSILNAKGEETKAMESQRAYRFVQGKDWGFKKFIRRDFLLDEANGLLPDDKLTLFCEVSVVQDSVNISGQNTMNMVKVPECRLADELGGLWENSRFTDCCLCVAGQEFQAHKAILAARSPVFSAMFEHEMEESKKNRVEINDVEPEVFKEMMCFIYTGKAPNLDKMADDLLAAADKYALERLKVMCEDALCSNLSVENAAEILILADLHSADQLKTQAVDFINYHASDVLETSGWKSMVVSHPHLVAEAYRSLASAQCPFLGPPRKRLKQS [Y87C]	with no effect

Variants of: B1
Settings: with mitf_human MITF

Variant	effect of a mutation on the interaction
MSRVPSPPPPAEMSSGPVAESWCYTQIKVVKFSYMWTINNFSFCREEMGEVIKSSTFSSGANDKLKWCLRVNPKGLDEESKDYLSLCLLLVSCPKSEVRAKFKFSILNAKGEETKAMESQRAYRFVQGKDWGFKKFIRRDFLLDEANGLLPDDKLTLFCEVSVVQDSVNISGQNTMNMVKVPECRLADELGGLWENSRFTDCCLCVAGQEFQAHKAILAARSPVFSAMFEHEMEESKKNRVEINDVEPEVFKEMMCFIYTGKAPNLDKMADDLLAAADKYALERLKVMCEDALCSNLSVENAAEILILADLHSADQLKTQAVDFINYHASDVLETSGWKSMVVSHPHLVAEAYRSLASAQCPFLGPPRKRLKQS [Y87C]	with no effect

Variants of: B1
Settings: with mlh1_human MLH1, P40692

Variant	effect of a mutation on the interaction
MSRVPSPPPPAEMSSGPVAESWCYTQIKVVKFSYMWTINNFSFCREEMGEVIKSSTFSSGANDKLKWCLRVNPKGLDEESKDYLSLCLLLVSCPKSEVRAKFKFSILNAKGEETKAMESQRAYRFVQGKDWGFKKFIRRDFLLDEANGLLPDDKLTLFCEVSVVQDSVNISGQNTMNMVKVPECRLADELGGLWENSRFTDCCLCVAGQEFQAHKAILAARSPVFSAMFEHEMEESKKNRVEINDVEPEVFKEMMCFIYTGKAPNLDKMADDLLAAADKYALERLKVMCEDALCSNLSVENAAEILILADLHSADQLKTQAVDFINYHASDVLETSGWKSMVVSHPHLVAEAYRSLASAQCPFLGPPRKRLKQS [Y87C]	with no effect

Variants of: B1
Settings: with mtor_human MTOR

Variant	effect of a mutation on the interaction
MSRVPSPPPPAEMSSGPVAESWCYTQIKVVKFSYMWTINNFSFCREEMGEVIKSSTFSSGANDKLKWCLRVNPKGLDEESKDYLSLCLLLVSCPKSEVRAKFKFSILNAKGEETKAMESQRAYRFVQGKDWGFKKFIRRDFLLDEANGLLPDDKLTLFCEVSVVQDSVNISGQNTMNMVKVPECRLADELGGLWENSRFTDCCLCVAGQEFQAHKAILAARSPVFSAMFEHEMEESKKNRVEINDVEPEVFKEMMCFIYTGKAPNLDKMADDLLAAADKYALERLKVMCEDALCSNLSVENAAEILILADLHSADQLKTQAVDFINYHASDVLETSGWKSMVVSHPHLVAEAYRSLASAQCPFLGPPRKRLKQS [Y87C]	with no effect

Variants of: B1
Settings: with mybb_human MYBL2, P10244
Sequence of mybb_human MYBL2, P10244 (P10244 whole entry): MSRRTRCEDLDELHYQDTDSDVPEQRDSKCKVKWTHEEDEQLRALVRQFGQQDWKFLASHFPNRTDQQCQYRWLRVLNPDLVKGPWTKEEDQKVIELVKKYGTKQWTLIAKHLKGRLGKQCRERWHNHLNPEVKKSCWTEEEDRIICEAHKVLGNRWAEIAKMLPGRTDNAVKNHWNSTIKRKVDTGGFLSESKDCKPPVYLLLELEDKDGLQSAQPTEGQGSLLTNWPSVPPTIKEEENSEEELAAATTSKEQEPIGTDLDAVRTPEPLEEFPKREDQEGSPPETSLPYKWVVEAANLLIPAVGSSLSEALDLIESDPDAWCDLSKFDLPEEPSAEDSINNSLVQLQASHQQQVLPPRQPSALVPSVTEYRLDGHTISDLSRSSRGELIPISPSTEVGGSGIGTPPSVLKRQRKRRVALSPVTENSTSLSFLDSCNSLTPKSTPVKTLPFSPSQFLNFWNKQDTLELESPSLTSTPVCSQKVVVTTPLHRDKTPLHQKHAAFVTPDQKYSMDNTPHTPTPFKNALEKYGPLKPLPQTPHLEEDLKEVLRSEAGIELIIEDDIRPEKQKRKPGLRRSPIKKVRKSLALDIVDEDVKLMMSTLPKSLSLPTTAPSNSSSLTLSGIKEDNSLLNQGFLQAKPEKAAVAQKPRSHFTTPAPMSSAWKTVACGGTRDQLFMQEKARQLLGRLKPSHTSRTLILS

Variant	effect of a mutation on the interaction
MSRVPSPPPPAEMSSGPVAESWCYTQIKVVKFSYMWTINNFSFCREEMGEVIKSSTFSSGANDKLKWCLRVNPKGLDEESKDYLSLCLLLVSCPKSEVRAKFKFSILNAKGEETKAMESQRAYRFVQGKDWGFKKFIRRDFLLDEANGLLPDDKLTLFCEVSVVQDSVNISGQNTMNMVKVPECRLADELGGLWENSRFTDCCLCVAGQEFQAHKAILAARSPVFSAMFEHEMEESKKNRVEINDVEPEVFKEMMCFIYTGKAPNLDKMADDLLAAADKYALERLKVMCEDALCSNLSVENAAEILILADLHSADQLKTQAVDFINYHASDVLETSGWKSMVVSHPHLVAEAYRSLASAQCPFLGPPRKRLKQS [Y87C]	with no effect

Variants of: B1
Settings: with myc_human MYC

Variant	effect of a mutation on the interaction
MSRVPSPPPPAEMSSGPVAESWCYTQIKVVKFSYMWTINNFSFCREEMGEVIKSSTFSSGANDKLKWCLRVNPKGLDEESKDYLSLCLLLVSCPKSEVRAKFKFSILNAKGEETKAMESQRAYRFVQGKDWGFKKFIRRDFLLDEANGLLPDDKLTLFCEVSVVQDSVNISGQNTMNMVKVPECRLADELGGLWENSRFTDCCLCVAGQEFQAHKAILAARSPVFSAMFEHEMEESKKNRVEINDVEPEVFKEMMCFIYTGKAPNLDKMADDLLAAADKYALERLKVMCEDALCSNLSVENAAEILILADLHSADQLKTQAVDFINYHASDVLETSGWKSMVVSHPHLVAEAYRSLASAQCPFLGPPRKRLKQS [Y87C]	with no effect

Variants of: B1
Settings: with mycn_human MYCN

Variant	effect of a mutation on the interaction
MSRVPSPPPPAEMSSGPVAESWCYTQIKVVKFSYMWTINNFSFCREEMGEVIKSSTFSSGANDKLKWCLRVNPKGLDEESKDYLSLCLLLVSCPKSEVRAKFKFSILNAKGEETKAMESQRAYRFVQGKDWGFKKFIRRDFLLDEANGLLPDDKLTLFCEVSVVQDSVNISGQNTMNMVKVPECRLADELGGLWENSRFTDCCLCVAGQEFQAHKAILAARSPVFSAMFEHEMEESKKNRVEINDVEPEVFKEMMCFIYTGKAPNLDKMADDLLAAADKYALERLKVMCEDALCSNLSVENAAEILILADLHSADQLKTQAVDFINYHASDVLETSGWKSMVVSHPHLVAEAYRSLASAQCPFLGPPRKRLKQS [Y87C]	with no effect

Variants of: B1
Settings: with ncoa3_human NCOA3, Q9Y6Q9
Sequence of ncoa3_human NCOA3, Q9Y6Q9 (Q9Y6Q9 whole entry, looked up): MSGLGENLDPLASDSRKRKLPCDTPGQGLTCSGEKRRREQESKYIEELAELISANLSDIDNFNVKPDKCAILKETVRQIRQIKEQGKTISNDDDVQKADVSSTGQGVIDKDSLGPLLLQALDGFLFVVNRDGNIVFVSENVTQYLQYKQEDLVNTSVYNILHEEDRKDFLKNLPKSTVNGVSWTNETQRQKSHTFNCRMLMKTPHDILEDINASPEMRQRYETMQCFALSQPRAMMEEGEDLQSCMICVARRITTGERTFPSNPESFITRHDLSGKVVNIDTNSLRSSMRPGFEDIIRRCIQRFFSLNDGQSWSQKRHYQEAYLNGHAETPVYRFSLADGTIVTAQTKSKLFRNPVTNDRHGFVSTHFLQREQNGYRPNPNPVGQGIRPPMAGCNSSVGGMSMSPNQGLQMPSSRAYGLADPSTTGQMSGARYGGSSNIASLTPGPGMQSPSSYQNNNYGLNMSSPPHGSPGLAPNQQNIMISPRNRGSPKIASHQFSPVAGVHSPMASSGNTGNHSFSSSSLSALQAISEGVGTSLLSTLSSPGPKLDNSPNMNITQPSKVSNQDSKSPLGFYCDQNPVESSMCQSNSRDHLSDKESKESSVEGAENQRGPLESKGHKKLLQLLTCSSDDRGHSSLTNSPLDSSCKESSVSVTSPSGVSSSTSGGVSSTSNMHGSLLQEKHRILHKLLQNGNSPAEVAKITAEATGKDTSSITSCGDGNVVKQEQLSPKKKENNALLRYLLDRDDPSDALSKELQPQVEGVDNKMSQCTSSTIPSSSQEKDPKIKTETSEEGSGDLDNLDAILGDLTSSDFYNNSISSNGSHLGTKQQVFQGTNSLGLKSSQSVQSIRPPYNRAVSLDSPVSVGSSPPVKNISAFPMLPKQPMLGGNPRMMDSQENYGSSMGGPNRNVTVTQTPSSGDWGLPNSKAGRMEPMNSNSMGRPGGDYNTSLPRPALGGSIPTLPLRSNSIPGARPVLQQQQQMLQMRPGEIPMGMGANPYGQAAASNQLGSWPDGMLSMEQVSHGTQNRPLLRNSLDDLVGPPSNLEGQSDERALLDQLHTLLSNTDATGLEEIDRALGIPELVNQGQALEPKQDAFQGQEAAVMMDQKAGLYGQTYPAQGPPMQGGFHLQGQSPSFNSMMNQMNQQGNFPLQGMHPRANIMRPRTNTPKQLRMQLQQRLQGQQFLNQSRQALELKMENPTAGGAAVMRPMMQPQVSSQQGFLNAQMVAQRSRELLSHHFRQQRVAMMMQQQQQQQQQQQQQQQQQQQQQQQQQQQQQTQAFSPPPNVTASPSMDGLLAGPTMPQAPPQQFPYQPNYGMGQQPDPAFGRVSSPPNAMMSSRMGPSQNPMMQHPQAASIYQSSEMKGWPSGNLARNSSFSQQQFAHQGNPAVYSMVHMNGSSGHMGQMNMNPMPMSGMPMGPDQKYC

Variant	effect of a mutation on the interaction
MSRVPSPPPPAEMSSGPVAESWCYTQIKVVKFSYMWTINNFSFCREEMGEVIKSSTFSSGANDKLKWCLRVNPKGLDEESKDYLSLCLLLVSCPKSEVRAKFKFSILNAKGEETKAMESQRAYRFVQGKDWGFKKFIRRDFLLDEANGLLPDDKLTLFCEVSVVQDSVNISGQNTMNMVKVPECRLADELGGLWENSRFTDCCLCVAGQEFQAHKAILAARSPVFSAMFEHEMEESKKNRVEINDVEPEVFKEMMCFIYTGKAPNLDKMADDLLAAADKYALERLKVMCEDALCSNLSVENAAEILILADLHSADQLKTQAVDFINYHASDVLETSGWKSMVVSHPHLVAEAYRSLASAQCPFLGPPRKRLKQS [Y87C]	with no effect

Variants of: B1
Settings: with merl_human NF2, P35240

Variant	effect of a mutation on the interaction
MSRVPSPPPPAEMSSGPVAESWCYTQIKVVKFSYMWTINNFSFCREEMGEVIKSSTFSSGANDKLKWCLRVNPKGLDEESKDYLSLCLLLVSCPKSEVRAKFKFSILNAKGEETKAMESQRAYRFVQGKDWGFKKFIRRDFLLDEANGLLPDDKLTLFCEVSVVQDSVNISGQNTMNMVKVPECRLADELGGLWENSRFTDCCLCVAGQEFQAHKAILAARSPVFSAMFEHEMEESKKNRVEINDVEPEVFKEMMCFIYTGKAPNLDKMADDLLAAADKYALERLKVMCEDALCSNLSVENAAEILILADLHSADQLKTQAVDFINYHASDVLETSGWKSMVVSHPHLVAEAYRSLASAQCPFLGPPRKRLKQS [Y87C]	with no effect

Variants of: B1
Settings: with nfic_human NFIC

Variant	effect of a mutation on the interaction
MSRVPSPPPPAEMSSGPVAESWCYTQIKVVKFSYMWTINNFSFCREEMGEVIKSSTFSSGANDKLKWCLRVNPKGLDEESKDYLSLCLLLVSCPKSEVRAKFKFSILNAKGEETKAMESQRAYRFVQGKDWGFKKFIRRDFLLDEANGLLPDDKLTLFCEVSVVQDSVNISGQNTMNMVKVPECRLADELGGLWENSRFTDCCLCVAGQEFQAHKAILAARSPVFSAMFEHEMEESKKNRVEINDVEPEVFKEMMCFIYTGKAPNLDKMADDLLAAADKYALERLKVMCEDALCSNLSVENAAEILILADLHSADQLKTQAVDFINYHASDVLETSGWKSMVVSHPHLVAEAYRSLASAQCPFLGPPRKRLKQS [Y87C]	with no effect

Variants of: B1
Settings: with ikba_human NFKBIA

Variant	effect of a mutation on the interaction
MSRVPSPPPPAEMSSGPVAESWCYTQIKVVKFSYMWTINNFSFCREEMGEVIKSSTFSSGANDKLKWCLRVNPKGLDEESKDYLSLCLLLVSCPKSEVRAKFKFSILNAKGEETKAMESQRAYRFVQGKDWGFKKFIRRDFLLDEANGLLPDDKLTLFCEVSVVQDSVNISGQNTMNMVKVPECRLADELGGLWENSRFTDCCLCVAGQEFQAHKAILAARSPVFSAMFEHEMEESKKNRVEINDVEPEVFKEMMCFIYTGKAPNLDKMADDLLAAADKYALERLKVMCEDALCSNLSVENAAEILILADLHSADQLKTQAVDFINYHASDVLETSGWKSMVVSHPHLVAEAYRSLASAQCPFLGPPRKRLKQS [Y87C]	with no effect

Variants of: B1
Settings: with notc2_human NOTCH2, Q04721
Sequence of notc2_human NOTCH2, Q04721 (Q04721 whole entry): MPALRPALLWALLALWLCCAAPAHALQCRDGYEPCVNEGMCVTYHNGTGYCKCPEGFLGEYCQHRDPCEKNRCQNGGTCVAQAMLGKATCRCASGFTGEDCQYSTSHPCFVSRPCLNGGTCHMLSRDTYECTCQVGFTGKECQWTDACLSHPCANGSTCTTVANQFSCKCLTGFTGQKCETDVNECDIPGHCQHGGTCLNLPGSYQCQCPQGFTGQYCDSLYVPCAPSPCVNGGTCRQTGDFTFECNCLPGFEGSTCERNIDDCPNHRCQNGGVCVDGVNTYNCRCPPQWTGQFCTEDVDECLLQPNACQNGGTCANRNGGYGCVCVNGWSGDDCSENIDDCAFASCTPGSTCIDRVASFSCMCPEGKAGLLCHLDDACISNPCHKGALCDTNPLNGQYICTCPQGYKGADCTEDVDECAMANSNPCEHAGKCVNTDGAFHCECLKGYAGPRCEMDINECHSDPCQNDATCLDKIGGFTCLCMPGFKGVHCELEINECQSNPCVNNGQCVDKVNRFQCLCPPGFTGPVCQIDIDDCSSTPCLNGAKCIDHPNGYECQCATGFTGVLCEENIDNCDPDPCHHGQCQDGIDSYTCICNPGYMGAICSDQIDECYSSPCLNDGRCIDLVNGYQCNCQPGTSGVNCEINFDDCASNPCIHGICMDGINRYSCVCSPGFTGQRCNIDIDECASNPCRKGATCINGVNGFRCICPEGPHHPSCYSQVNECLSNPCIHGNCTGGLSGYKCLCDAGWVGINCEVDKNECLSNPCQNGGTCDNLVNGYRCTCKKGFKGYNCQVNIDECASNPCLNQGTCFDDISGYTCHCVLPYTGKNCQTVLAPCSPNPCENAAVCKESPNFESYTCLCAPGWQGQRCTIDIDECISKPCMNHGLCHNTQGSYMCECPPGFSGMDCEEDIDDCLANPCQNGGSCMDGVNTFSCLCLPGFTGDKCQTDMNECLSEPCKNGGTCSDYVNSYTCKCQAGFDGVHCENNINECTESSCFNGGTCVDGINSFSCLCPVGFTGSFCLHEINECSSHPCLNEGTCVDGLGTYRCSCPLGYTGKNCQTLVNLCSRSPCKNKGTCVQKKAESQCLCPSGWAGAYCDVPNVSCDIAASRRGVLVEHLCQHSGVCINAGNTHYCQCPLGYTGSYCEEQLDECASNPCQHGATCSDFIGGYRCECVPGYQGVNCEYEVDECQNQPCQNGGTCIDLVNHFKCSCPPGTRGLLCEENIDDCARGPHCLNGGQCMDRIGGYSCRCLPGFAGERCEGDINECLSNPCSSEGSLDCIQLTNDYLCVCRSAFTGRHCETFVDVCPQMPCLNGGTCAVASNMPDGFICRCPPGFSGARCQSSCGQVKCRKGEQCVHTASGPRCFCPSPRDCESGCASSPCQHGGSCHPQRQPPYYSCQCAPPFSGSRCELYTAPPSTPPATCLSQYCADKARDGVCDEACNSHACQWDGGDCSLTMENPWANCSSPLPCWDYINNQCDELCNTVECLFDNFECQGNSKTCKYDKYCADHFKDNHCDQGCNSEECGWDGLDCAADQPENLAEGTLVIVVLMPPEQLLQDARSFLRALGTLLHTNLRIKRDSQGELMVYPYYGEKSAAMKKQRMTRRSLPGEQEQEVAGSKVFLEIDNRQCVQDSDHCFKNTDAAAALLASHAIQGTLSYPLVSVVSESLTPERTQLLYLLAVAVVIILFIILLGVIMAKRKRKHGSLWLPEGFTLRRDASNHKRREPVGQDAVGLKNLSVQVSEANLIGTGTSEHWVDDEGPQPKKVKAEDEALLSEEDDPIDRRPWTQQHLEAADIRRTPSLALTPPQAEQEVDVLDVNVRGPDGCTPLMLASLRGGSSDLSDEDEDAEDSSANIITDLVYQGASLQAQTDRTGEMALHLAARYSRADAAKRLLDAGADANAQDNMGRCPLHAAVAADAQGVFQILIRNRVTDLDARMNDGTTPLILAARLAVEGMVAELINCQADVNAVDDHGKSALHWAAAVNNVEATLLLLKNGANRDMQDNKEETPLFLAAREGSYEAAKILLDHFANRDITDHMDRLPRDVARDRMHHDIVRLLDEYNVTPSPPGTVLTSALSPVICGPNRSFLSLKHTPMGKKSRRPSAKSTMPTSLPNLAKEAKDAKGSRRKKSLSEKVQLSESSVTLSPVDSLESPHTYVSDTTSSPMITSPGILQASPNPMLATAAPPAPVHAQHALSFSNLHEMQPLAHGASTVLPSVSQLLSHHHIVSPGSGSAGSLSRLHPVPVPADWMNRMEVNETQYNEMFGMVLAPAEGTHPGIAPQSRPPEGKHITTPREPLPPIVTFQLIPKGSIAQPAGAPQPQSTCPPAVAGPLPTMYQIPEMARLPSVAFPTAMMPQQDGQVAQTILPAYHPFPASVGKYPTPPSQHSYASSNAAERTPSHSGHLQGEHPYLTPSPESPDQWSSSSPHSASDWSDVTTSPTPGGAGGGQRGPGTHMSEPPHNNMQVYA

Variant	effect of a mutation on the interaction
MSRVPSPPPPAEMSSGPVAESWCYTQIKVVKFSYMWTINNFSFCREEMGEVIKSSTFSSGANDKLKWCLRVNPKGLDEESKDYLSLCLLLVSCPKSEVRAKFKFSILNAKGEETKAMESQRAYRFVQGKDWGFKKFIRRDFLLDEANGLLPDDKLTLFCEVSVVQDSVNISGQNTMNMVKVPECRLADELGGLWENSRFTDCCLCVAGQEFQAHKAILAARSPVFSAMFEHEMEESKKNRVEINDVEPEVFKEMMCFIYTGKAPNLDKMADDLLAAADKYALERLKVMCEDALCSNLSVENAAEILILADLHSADQLKTQAVDFINYHASDVLETSGWKSMVVSHPHLVAEAYRSLASAQCPFLGPPRKRLKQS [Y87C]	with no effect
